Assay results reported in patent US20090214427A1 (LICENTIA, published 2009).
No end group written: not given here.

B1: GAARRPFPAPAG (SEQ ID NO:14) (peptide)
peptide: GAARRPFPAPAG
B2: RFKVWWAAG (SEQ ID NO:65) (peptide)
peptide: RFKVWWAAG-OH
B3: GPARG (SEQ ID NO:30) (peptide)
peptide: GPARG-OH
B4: GPARRPFPVAAG (SEQ ID NO:23) (peptide)
peptide: GPARRPFPVAAG-OH
B5: ARFKVWWA (SEQ ID NO:79) (peptide)
peptide: ARFKVWWA
B6: Ac-ARFKVWWA (SEQ ID NO:80) (peptide)
peptide: Ac-ARFKVWWA
B7: Ac-ARFKVWWGG (SEQ ID NO:77) (peptide)
peptide: Ac-ARFKVWWGG
B8: SRFKVG (SEQ ID NO:71) (peptide)
peptide: SRFKVG-OH
B9: GPARRG (SEQ ID NO:29) (peptide)
peptide: GPARRG-OH
B10: GARRPFPVTAG (SEQ ID NO:32) (peptide)
peptide: GARRPFPVTAG
B11: GAAARPFPAPSG (SEQ ID NO:8) (peptide)
peptide: GAAARPFPAPSG
B12: GPARRPFAVTAG (SEQ ID NO:21) (peptide)
peptide: GPARRPFAVTAG-OH
B13: GFVTAG as printed in Table 6 (SEQ ID NO:37) (peptide)
peptide: GPVTAG-OH
B14: GAARRAFPAPSG (SEQ ID NO:10) (peptide)
peptide: GAARRAFPAPSG
B15: GPARAPFPVTAG (SEQ ID NO:18) (peptide)
peptide: GPARAPFPVTAG-OH
B16: GFFPVTAG as printed in Table 6 (SEQ ID NO:35) (peptide)
peptide: GPFPVTAG-OH
B17: AARRPAPG (SEQ ID NO:45) (peptide)
peptide: AARRPAPG-OH
B18: GFFVTAG as printed in Table 6 (SEQ ID NO:36) (peptide)
peptide: GFPVTAG-OH
B19: GFARRFG as printed in Table 6 (SEQ ID NO:28) (peptide)
peptide: GPARRPG-OH
B20: Ac-ARFKVWWAA (SEQ ID NO:81) (peptide)
peptide: Ac-ARFKVWWAA
B21: SRFKG (SEQ ID NO:72) (peptide)
peptide: SRFKG-OH
B22: WWAAG (SEQ ID NO:67) (peptide)
peptide: WWAAG-OH
B23: AAARRPAPG (SEQ ID NO:46) (peptide)
peptide: AAARRPAPG
B24: GPARRPFPVG (SEQ ID NO:25) (peptide)
peptide: GPARRPFPVG-OH
B25: … as printed in Table 6 (SEQ ID NO:34) (peptide)
peptide: GRPFPVTAG-OH
B26: GAARRPFPAASG (SEQ ID NO:13) (peptide)
peptide: GAARRPFPAASG
B27: GAARRPAPAPSG (SEQ ID NO:11) (peptide)
peptide: GAARRPAPAPSG
B28: GPARRPFPVTG (SEQ ID NO:24) (peptide)
peptide: GPARRPFPVTG-OH
B29: GRRPFPG (SEQ ID NO:44) (peptide)
peptide: GRRPFPG-OH
B30: RRPAG (SEQ ID NO:41) (peptide)
peptide: RRPAG-OH
B31: GAARRPFAAPSG (SEQ ID NO:12) (peptide)
peptide: GAARRPFAAPSG
B32: GPARRPAPVTAG (SEQ ID NO:20) (peptide)
peptide: GPARRPAPVTAG-OH
B33: GAARRPFPAPSG (SEQ ID NO:7) (peptide)
peptide: GAARRPFPAPSG
B34: SRFKVWWAG (SEQ ID NO:68) (peptide)
peptide: SRFKVWWAG-OH
B35: FKVWWAAG (SEQ ID NO:66) (peptide)
peptide: FKVWWAAG
B36: GPAARPFPVTAG (SEQ ID NO:17) (peptide)
peptide: GPAARPFPVTAG-OH
B37: GPARRPFPATAG (SEQ ID NO:22) (peptide)
peptide: GPARRPFPATAG-OH
B38: … as printed in Table 6 (SEQ ID NO:33) (peptide)
peptide: GRRPFPVTAG-OH
B39: Ac-SRFKVWWG (SEQ ID NO:74) (peptide)
peptide: Ac-SRFKVWWG
B40: GPARRAFPVTAG (SEQ ID NO:19) (peptide)
peptide: GPARRAFPVTAG-OH
B41: SRFKVWG (SEQ ID NO:70) (peptide)
peptide: SRFKVWG-OH
B42: RRPFP (SEQ ID NO:40) (peptide)
peptide: RRPFP
B43: GAARAPFPAPSG (SEQ ID NO:9) (peptide)
peptide: GAARAPFPAPSG
B44: ARFKVWWG (SEQ ID NO:75) (peptide)
peptide: ARFKVWWG
B45: RRPFG (SEQ ID NO:42) (peptide)
peptide: RRPFG-OH
B46: GVTAG (SEQ ID NO:38) (peptide)
peptide: GVTAG-OH
B47: RRPAP (SEQ ID NO:39) (peptide)
peptide: RRPAP
B48: AARRPFPG (SEQ ID NO:47) (peptide)
peptide: AARRPFPG
B49: GPARRPFPG (SEQ ID NO:26) (peptide)
peptide: GPARRPFPG-OH
B50: GRRPAPG (SEQ ID NO:43) (peptide)
peptide: GRRPAPG-OH
B51: ARFKVWWA(CONH2) (SEQ ID NO:82) (peptide)
peptide: ARFKVWWA-NH2
B52: GAARRPFPVTAG (SEQ ID NO:16) (peptide)
peptide: GAARRPFPVTAG
B53: GPARRPFG (SEQ ID NO:27) (peptide)
peptide: GPARRPFG-OH
B54: ARFKVWWGG (SEQ ID NO:78) (peptide)
peptide: ARFKVWWGG
B55: Ac-ARFKVWWG (SEQ ID NO:76) (peptide)
peptide: Ac-ARFKVWWG

These binders were tested against recombinant wild-type (wt) human kallikrein 2 (human, UniProt P20151 25-261) (assay: cell-based or functional assay).
B1 gave an inhibition of 78%.
B2 was tested, and the inhibition was 22%.
In the case of B3, the inhibition is reported as 0%.
B4 gave an inhibition of 45%.
In the case of B5, the inhibition is reported as 95%.
Work on B6 yielded an inhibition of 94%.
With B7 the inhibition was 92%.
B8 gave an inhibition of 7%.
Work on B9 yielded an inhibition of 8%.
Work on B10 yielded an inhibition of 27%.
Binder B11 has an inhibition of 0%.
Work on B12 yielded an inhibition of 17%.
In the case of B13, the inhibition is reported as 0%.
Work on B14 yielded an inhibition of 0%.
B15 showed an inhibition of 0%.
Binder B16 has an inhibition of 0%.
Binder B17 has an inhibition of 36%.
For B18, the inhibition was 0%.
Work on B19 yielded an inhibition of 4%.
B20 was tested, and the inhibition was 93%.
In the case of B21, the inhibition is reported as 0%.
With B22 the inhibition was 0%.
With B23 the inhibition was 51%.
Work on B24 yielded an inhibition of 37%.
Work on B25 yielded an inhibition of 0%.
B26 showed an inhibition of 69%.
B27 showed an inhibition of 75%.
Binder B28 has an inhibition of 48%.
For B29, the inhibition was 0%.
Work on B30 yielded an inhibition of 0%.
B31 showed an inhibition of 24%.
B32 gave an inhibition of 49%.
B33 was tested, and the inhibition was 77%.
For B34, the inhibition was 80%.
Binder B35 has an inhibition of 0%.
Binder B36 has an inhibition of 0%.
With B37 the inhibition was 58%.
B38 was tested, and the inhibition was 2%.
With B39 the inhibition was 86%.
B40 showed an inhibition of 0%.
B41 was tested, and the inhibition was 8%.
B42 gave an inhibition of 0%.
In the case of B43, the inhibition is reported as 0%.
Binder B44 has an inhibition of 94%.
In the case of B45, the inhibition is reported as 0%.
For B46, the inhibition was 0%.
In the case of B47, the inhibition is reported as 0%.
Binder B48 has an inhibition of 28%.
B49 was tested, and the inhibition was 33%.
With B50 the inhibition was 0%.
Work on B51 yielded an inhibition of 86%.
B52 gave an inhibition of 61%.
Binder B53 has an inhibition of 0%.
With B54 the inhibition was 93%.
With B55 the inhibition was 93%.
